Measured values taken from paper PMC10786891, “Massively parallel profiling of RNA-targeting CRISPR-Cas13d”.

T1: EsCas13d, nuclease-dead (Eubacterium siraeum, UniProt B0MS50, R295A;H300A;R849A;H854A)
T1 sequence: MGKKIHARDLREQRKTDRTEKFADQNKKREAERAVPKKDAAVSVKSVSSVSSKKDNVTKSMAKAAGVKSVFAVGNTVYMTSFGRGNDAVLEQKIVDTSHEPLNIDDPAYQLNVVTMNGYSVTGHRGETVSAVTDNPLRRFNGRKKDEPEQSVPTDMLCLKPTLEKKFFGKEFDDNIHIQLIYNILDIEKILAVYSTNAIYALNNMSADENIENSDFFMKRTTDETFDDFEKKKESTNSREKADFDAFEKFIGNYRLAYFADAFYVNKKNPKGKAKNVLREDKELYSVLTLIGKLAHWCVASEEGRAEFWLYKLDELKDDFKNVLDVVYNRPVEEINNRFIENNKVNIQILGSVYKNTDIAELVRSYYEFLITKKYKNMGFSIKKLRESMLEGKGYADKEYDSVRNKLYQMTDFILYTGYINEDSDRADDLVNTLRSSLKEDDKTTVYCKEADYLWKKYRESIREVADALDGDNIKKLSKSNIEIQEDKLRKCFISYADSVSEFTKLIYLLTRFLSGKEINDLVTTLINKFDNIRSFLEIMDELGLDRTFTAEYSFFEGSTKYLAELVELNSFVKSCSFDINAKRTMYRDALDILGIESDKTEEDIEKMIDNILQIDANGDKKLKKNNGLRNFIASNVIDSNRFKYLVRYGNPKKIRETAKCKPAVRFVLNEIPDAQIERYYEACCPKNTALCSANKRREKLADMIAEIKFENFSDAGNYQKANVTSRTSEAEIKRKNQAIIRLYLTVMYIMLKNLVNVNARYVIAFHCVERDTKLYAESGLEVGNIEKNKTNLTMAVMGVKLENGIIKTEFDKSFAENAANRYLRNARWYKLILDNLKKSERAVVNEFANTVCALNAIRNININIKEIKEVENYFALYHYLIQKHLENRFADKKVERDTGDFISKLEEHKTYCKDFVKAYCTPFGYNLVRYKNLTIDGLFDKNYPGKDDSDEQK

B1: target 1 insA 3' of 22,insU 3' of 5 (mixed)
RNA 1: CACCCGUGCAAAAAUGCAGGGGUCUAAAACUGAGCGGAUAACCUCUCUAUGG
RNA 2: GGGAAUGGAUCCACAUCUACGAAUUCGUACACAUAGAGAGGUUAUCCGUCUCACCGAGAUCGGAAGAGCACACGU
B2: target 1 insC 3' of 14,insU 3' of 7 (mixed)
RNA 1: CACCCGUGCAAAAAUGCAGGGGUCUAAAACUGAGCGGAUAACCUCUCUAUGG
RNA 2: GGGAAUGGAUCCACAUCUACGAAUUCGUACCAUAGAGACGGUUAUCUCGCUCACCGAGAUCGGAAGAGCACACGU
B3: target 1 G5C,C21A (mixed)
RNA 1: CACCCGUGCAAAAAUGCAGGGGUCUAAAACUGAGCGGAUAACCUCUCUAUGG
RNA 2: GGGAAUGGAUCCACAUCUACGAAUUCGUACAAUAGAGAGGUUAUCCCCUCACCGAGAUCGGAAGAGCACACGU
B4: target 1 insA 3' of 12,insA 3' of 11 (mixed)
RNA 1: CACCCGUGCAAAAAUGCAGGGGUCUAAAACUGAGCGGAUAACCUCUCUAUGG
RNA 2: GGGAAUGGAUCCACAUCUACGAAUUCGUACCAUAGAGAGGAUAUAUCCGCUCACCGAGAUCGGAAGAGCACACGU
B5: target 1 G13A,A14C (mixed)
RNA 1: CACCCGUGCAAAAAUGCAGGGGUCUAAAACUGAGCGGAUAACCUCUCUAUGG
RNA 2: GGGAAUGGAUCCACAUCUACGAAUUCGUACCAUAGAGCAGUUAUCCGCUCACCGAGAUCGGAAGAGCACACGU
B6: target 1 insA 3' of 3,insA 3' of 3 (mixed)
RNA 1: CACCCGUGCAAAAAUGCAGGGGUCUAAAACUGAGCGGAUAACCUCUCUAUGG
RNA 2: GGGAAUGGAUCCACAUCUACGAAUUCGUACCAUAGAGAGGUUAUCCGCUAACACCGAGAUCGGAAGAGCACACGU
B7: target 1 insU 3' of 21,insU 3' of 21 (mixed)
RNA 1: CACCCGUGCAAAAAUGCAGGGGUCUAAAACUGAGCGGAUAACCUCUCUAUGG
RNA 2: GGGAAUGGAUCCACAUCUACGAAUUCGUACCUUAUAGAGAGGUUAUCCGCUCACCGAGAUCGGAAGAGCACACGU
B8: target 1 insC 3' of 19,insA 3' of 15 (mixed)
RNA 1: CACCCGUGCAAAAAUGCAGGGGUCUAAAACUGAGCGGAUAACCUCUCUAUGG
RNA 2: GGGAAUGGAUCCACAUCUACGAAUUCGUACCAUCAGAGAAGGUUAUCCGCUCACCGAGAUCGGAAGAGCACACGU
B9: target 1 insC 3' of 19,insU 3' of 5 (mixed)
RNA 1: CACCCGUGCAAAAAUGCAGGGGUCUAAAACUGAGCGGAUAACCUCUCUAUGG
RNA 2: GGGAAUGGAUCCACAUCUACGAAUUCGUACCAUCAGAGAGGUUAUCCGUCUCACCGAGAUCGGAAGAGCACACGU
B10: target 1 insU 3' of 22,insC 3' of 3 (mixed)
RNA 1: CACCCGUGCAAAAAUGCAGGGGUCUAAAACUGAGCGGAUAACCUCUCUAUGG
RNA 2: GGGAAUGGAUCCACAUCUACGAAUUCGUACUCAUAGAGAGGUUAUCCGCUCCACCGAGAUCGGAAGAGCACACGU
B11: target 1 insC 3' of 13,insU 3' of 12 (mixed)
RNA 1: CACCCGUGCAAAAAUGCAGGGGUCUAAAACUGAGCGGAUAACCUCUCUAUGG
RNA 2: GGGAAUGGAUCCACAUCUACGAAUUCGUACCAUAGAGAGCGUUUAUCCGCUCACCGAGAUCGGAAGAGCACACGU
B12: target 1 C6A,U8G (mixed)
RNA 1: CACCCGUGCAAAAAUGCAGGGGUCUAAAACUGAGCGGAUAACCUCUCUAUGG
RNA 2: GGGAAUGGAUCCACAUCUACGAAUUCGUACCAUAGAGAGGUUAGCAGCUCACCGAGAUCGGAAGAGCACACGU
B13: target 1 A1G,U11G (mixed)
RNA 1: CACCCGUGCAAAAAUGCAGGGGUCUAAAACUGAGCGGAUAACCUCUCUAUGG
RNA 2: GGGAAUGGAUCCACAUCUACGAAUUCGUACCAUAGAGAGGGUAUCCGCUCGCCGAGAUCGGAAGAGCACACGU
B14: target 1 insG 3' of 9,insG 3' of 4 (mixed)
RNA 1: CACCCGUGCAAAAAUGCAGGGGUCUAAAACUGAGCGGAUAACCUCUCUAUGG
RNA 2: GGGAAUGGAUCCACAUCUACGAAUUCGUACCAUAGAGAGGUUAGUCCGCGUCACCGAGAUCGGAAGAGCACACGU
B15: target 1 insG 3' of 16,insA 3' of 6 (mixed)
RNA 1: CACCCGUGCAAAAAUGCAGGGGUCUAAAACUGAGCGGAUAACCUCUCUAUGG
RNA 2: GGGAAUGGAUCCACAUCUACGAAUUCGUACCAUAGAGGAGGUUAUCCAGCUCACCGAGAUCGGAAGAGCACACGU
B16: target 1 insU 3' of 17,insC 3' of 5 (mixed)
RNA 1: CACCCGUGCAAAAAUGCAGGGGUCUAAAACUGAGCGGAUAACCUCUCUAUGG
RNA 2: GGGAAUGGAUCCACAUCUACGAAUUCGUACCAUAGUAGAGGUUAUCCGCCUCACCGAGAUCGGAAGAGCACACGU
B17: target 1 C4G,G12C (mixed)
RNA 1: CACCCGUGCAAAAAUGCAGGGGUCUAAAACUGAGCGGAUAACCUCUCUAUGG
RNA 2: GGGAAUGGAUCCACAUCUACGAAUUCGUACCAUAGAGAGCUUAUCCGGUCACCGAGAUCGGAAGAGCACACGU
B18: target 1 G13U,G15U (mixed)
RNA 1: CACCCGUGCAAAAAUGCAGGGGUCUAAAACUGAGCGGAUAACCUCUCUAUGG
RNA 2: GGGAAUGGAUCCACAUCUACGAAUUCGUACCAUAGAUAUGUUAUCCGCUCACCGAGAUCGGAAGAGCACACGU
B19: target 1 insG 3' of 9,insC 3' of 5 (mixed)
RNA 1: CACCCGUGCAAAAAUGCAGGGGUCUAAAACUGAGCGGAUAACCUCUCUAUGG
RNA 2: GGGAAUGGAUCCACAUCUACGAAUUCGUACCAUAGAGAGGUUAGUCCGCCUCACCGAGAUCGGAAGAGCACACGU
B20: target 1 U11C,A20U (mixed)
RNA 1: CACCCGUGCAAAAAUGCAGGGGUCUAAAACUGAGCGGAUAACCUCUCUAUGG
RNA 2: GGGAAUGGAUCCACAUCUACGAAUUCGUACCUUAGAGAGGCUAUCCGCUCACCGAGAUCGGAAGAGCACACGU
B21: target 1 insA 3' of 22,insU 3' of 6 (mixed)
RNA 1: CACCCGUGCAAAAAUGCAGGGGUCUAAAACUGAGCGGAUAACCUCUCUAUGG
RNA 2: GGGAAUGGAUCCACAUCUACGAAUUCGUACACAUAGAGAGGUUAUCCUGCUCACCGAGAUCGGAAGAGCACACGU
B22: target 1 insG 3' of 7,insC 3' of 5 (mixed)
RNA 1: CACCCGUGCAAAAAUGCAGGGGUCUAAAACUGAGCGGAUAACCUCUCUAUGG
RNA 2: GGGAAUGGAUCCACAUCUACGAAUUCGUACCAUAGAGAGGUUAUCGCGCCUCACCGAGAUCGGAAGAGCACACGU
B23: target 1 insC 3' of 19,insU 3' of 6 (mixed)
RNA 1: CACCCGUGCAAAAAUGCAGGGGUCUAAAACUGAGCGGAUAACCUCUCUAUGG
RNA 2: GGGAAUGGAUCCACAUCUACGAAUUCGUACCAUCAGAGAGGUUAUCCUGCUCACCGAGAUCGGAAGAGCACACGU
B24: target 1 G5A,G15C (mixed)
RNA 1: CACCCGUGCAAAAAUGCAGGGGUCUAAAACUGAGCGGAUAACCUCUCUAUGG
RNA 2: GGGAAUGGAUCCACAUCUACGAAUUCGUACCAUAGACAGGUUAUCCACUCACCGAGAUCGGAAGAGCACACGU
B25: target 1 G13A,G15U (mixed)
RNA 1: CACCCGUGCAAAAAUGCAGGGGUCUAAAACUGAGCGGAUAACCUCUCUAUGG
RNA 2: GGGAAUGGAUCCACAUCUACGAAUUCGUACCAUAGAUAAGUUAUCCGCUCACCGAGAUCGGAAGAGCACACGU
B26: target 1 insA 3' of 7,insU 3' of 5 (mixed)
RNA 1: CACCCGUGCAAAAAUGCAGGGGUCUAAAACUGAGCGGAUAACCUCUCUAUGG
RNA 2: GGGAAUGGAUCCACAUCUACGAAUUCGUACCAUAGAGAGGUUAUCACGUCUCACCGAGAUCGGAAGAGCACACGU
B27: target 1 C7A,U8A (mixed)
RNA 1: CACCCGUGCAAAAAUGCAGGGGUCUAAAACUGAGCGGAUAACCUCUCUAUGG
RNA 2: GGGAAUGGAUCCACAUCUACGAAUUCGUACCAUAGAGAGGUUAAACGCUCACCGAGAUCGGAAGAGCACACGU
B28: target 1 insU 3' of 22,insA 3' of 22 (mixed)
RNA 1: CACCCGUGCAAAAAUGCAGGGGUCUAAAACUGAGCGGAUAACCUCUCUAUGG
RNA 2: GGGAAUGGAUCCACAUCUACGAAUUCGUACUACAUAGAGAGGUUAUCCGCUCACCGAGAUCGGAAGAGCACACGU

Each binder was assayed against T1, EsCas13d, nuclease-dead (assay: crRNA (strand 1, pre-loaded); Mg2+; 40 mM Tris-HCl pH 7.5, 150 mM NaCl, 6 mM MgCl2, 1 mM DTT, 0.1% Tween-20, 0.2 mg/ml BSA; 25 C; 10 min per concentration, then washed). Conditions: tags: His6-TwinStrep-SUMO cleaved; N-terminal SNAP kept (SNAP-Surface 488); label: 3' end held by stalled T7 RNA polymerase.

Q: B1 was tested. Which Kd did it give?
A: 28 ± 7 nM

Q: For B2, which Kd is on record?
A: 41 ± 8 nM

Q: For B3, which Kd is on record?
A: 27 ± 5 nM

Q: How did the Kd turn out when B4 was run?
A: 29 ± 5 nM

Q: How did the Kd turn out when B5 was run?
A: 12 ± 0.7 nM

Q: For B6, which Kd is on record?
A: 7.5 ± 0.6 nM

Q: B7 was tested. Which Kd did it give?
A: 72 ± 13 nM

Q: How did the Kd turn out when B8 was run?
A: 36 ± 4 nM

Q: How did the Kd turn out when B9 was run?
A: 39 ± 13 nM

Q: With B10 as the binder, how does the Kd read?
A: 28 ± 6 nM

Q: Which Kd does the source give for B11 here?
A: 11.1 ± 0.4 nM

Q: Which Kd does the source give for B12 here?
A: 12.8 ± 0.7 nM

Q: Which Kd does the source give for B13 here?
A: 23.8 ± 1.6 nM

Q: B14 was tested. Which Kd did it give?
A: 8.9 ± 0.6 nM

Q: B15 was tested. Which Kd did it give?
A: 15 ± 0.6 nM

Q: How did the Kd turn out when B16 was run?
A: 60 ± 14 nM

Q: How did the Kd turn out when B17 was run?
A: 18 ± 4 nM

Q: For B18, which Kd is on record?
A: 55 ± 19 nM

Q: Which Kd does the source give for B19 here?
A: 11.3 ± 0.5 nM

Q: How did the Kd turn out when B20 was run?
A: 55 ± 7 nM

Q: How did the Kd turn out when B21 was run?
A: 13.6 ± 0.6 nM

Q: With B22 as the binder, how does the Kd read?
A: 9.8 ± 0.6 nM

Q: Which Kd does the source give for B23 here?
A: 46.6 ± 2.9 nM

Q: Which Kd does the source give for B24 here?
A: 54 ± 17 nM

Q: Which Kd does the source give for B25 here?
A: 80 ± 40 nM

Q: How did the Kd turn out when B26 was run?
A: 11.4 ± 0.33 nM

Q: B27 was tested. Which Kd did it give?
A: 7.41 ± 0.23 nM

Q: Which Kd does the source give for B28 here?
A: 4.11 ± 0.31 nM
